Laboratory results published in IntAct's records for PubMed 18001824.

B1: E3 ubiquitin-protein ligase RNF8 (Homo sapiens), O76064 (parent)
chain: MGEPGFFVTGDRAGGRSWCLRRVGMSAGWLLLEDGCEVTVGRGFGVTYQLVSKICPLMISRNHCVLKQNPEGQWTIMDNKSLNGVWLNRARLEPLRVYSIHQGDYIQLGVPLENKENAEYEYEVTEEDWETIYPCLSPKNDQMIEKNKELRTKRKFSLDELAGPGAEGPSNLKSKINKVSCESGQPVKSQGKGEVASTPSDNLDPKLTALEPSKTTGAPIYPGFPKVTEVHHEQKASNSSASQRSLQMFKVTMSRILRLKIQMQEKHEAVMNVKKQTQKGNSKKVVQMEQELQDLQSQLCAEQAQQQARVEQLEKTFQEEEQHLQGLEIAQGEKDLKQQLAQALQEHWALMEELNRSKKDFEAIIQAKNKELEQTKEEKEKMQAQKEEVLSHMNDVLENELQCIICSEYFIEAVTLNCAHSFCSYCINEWMKRKIECPICRKDIKSKTYSLVLDNCINKMVNNLSSEVKERRIVLIRERKAKRLF

Variants of: B1
Conditions: with mdc1_human MDC1, Q14676
Sequence of mdc1_human MDC1, Q14676 (Q14676 whole entry): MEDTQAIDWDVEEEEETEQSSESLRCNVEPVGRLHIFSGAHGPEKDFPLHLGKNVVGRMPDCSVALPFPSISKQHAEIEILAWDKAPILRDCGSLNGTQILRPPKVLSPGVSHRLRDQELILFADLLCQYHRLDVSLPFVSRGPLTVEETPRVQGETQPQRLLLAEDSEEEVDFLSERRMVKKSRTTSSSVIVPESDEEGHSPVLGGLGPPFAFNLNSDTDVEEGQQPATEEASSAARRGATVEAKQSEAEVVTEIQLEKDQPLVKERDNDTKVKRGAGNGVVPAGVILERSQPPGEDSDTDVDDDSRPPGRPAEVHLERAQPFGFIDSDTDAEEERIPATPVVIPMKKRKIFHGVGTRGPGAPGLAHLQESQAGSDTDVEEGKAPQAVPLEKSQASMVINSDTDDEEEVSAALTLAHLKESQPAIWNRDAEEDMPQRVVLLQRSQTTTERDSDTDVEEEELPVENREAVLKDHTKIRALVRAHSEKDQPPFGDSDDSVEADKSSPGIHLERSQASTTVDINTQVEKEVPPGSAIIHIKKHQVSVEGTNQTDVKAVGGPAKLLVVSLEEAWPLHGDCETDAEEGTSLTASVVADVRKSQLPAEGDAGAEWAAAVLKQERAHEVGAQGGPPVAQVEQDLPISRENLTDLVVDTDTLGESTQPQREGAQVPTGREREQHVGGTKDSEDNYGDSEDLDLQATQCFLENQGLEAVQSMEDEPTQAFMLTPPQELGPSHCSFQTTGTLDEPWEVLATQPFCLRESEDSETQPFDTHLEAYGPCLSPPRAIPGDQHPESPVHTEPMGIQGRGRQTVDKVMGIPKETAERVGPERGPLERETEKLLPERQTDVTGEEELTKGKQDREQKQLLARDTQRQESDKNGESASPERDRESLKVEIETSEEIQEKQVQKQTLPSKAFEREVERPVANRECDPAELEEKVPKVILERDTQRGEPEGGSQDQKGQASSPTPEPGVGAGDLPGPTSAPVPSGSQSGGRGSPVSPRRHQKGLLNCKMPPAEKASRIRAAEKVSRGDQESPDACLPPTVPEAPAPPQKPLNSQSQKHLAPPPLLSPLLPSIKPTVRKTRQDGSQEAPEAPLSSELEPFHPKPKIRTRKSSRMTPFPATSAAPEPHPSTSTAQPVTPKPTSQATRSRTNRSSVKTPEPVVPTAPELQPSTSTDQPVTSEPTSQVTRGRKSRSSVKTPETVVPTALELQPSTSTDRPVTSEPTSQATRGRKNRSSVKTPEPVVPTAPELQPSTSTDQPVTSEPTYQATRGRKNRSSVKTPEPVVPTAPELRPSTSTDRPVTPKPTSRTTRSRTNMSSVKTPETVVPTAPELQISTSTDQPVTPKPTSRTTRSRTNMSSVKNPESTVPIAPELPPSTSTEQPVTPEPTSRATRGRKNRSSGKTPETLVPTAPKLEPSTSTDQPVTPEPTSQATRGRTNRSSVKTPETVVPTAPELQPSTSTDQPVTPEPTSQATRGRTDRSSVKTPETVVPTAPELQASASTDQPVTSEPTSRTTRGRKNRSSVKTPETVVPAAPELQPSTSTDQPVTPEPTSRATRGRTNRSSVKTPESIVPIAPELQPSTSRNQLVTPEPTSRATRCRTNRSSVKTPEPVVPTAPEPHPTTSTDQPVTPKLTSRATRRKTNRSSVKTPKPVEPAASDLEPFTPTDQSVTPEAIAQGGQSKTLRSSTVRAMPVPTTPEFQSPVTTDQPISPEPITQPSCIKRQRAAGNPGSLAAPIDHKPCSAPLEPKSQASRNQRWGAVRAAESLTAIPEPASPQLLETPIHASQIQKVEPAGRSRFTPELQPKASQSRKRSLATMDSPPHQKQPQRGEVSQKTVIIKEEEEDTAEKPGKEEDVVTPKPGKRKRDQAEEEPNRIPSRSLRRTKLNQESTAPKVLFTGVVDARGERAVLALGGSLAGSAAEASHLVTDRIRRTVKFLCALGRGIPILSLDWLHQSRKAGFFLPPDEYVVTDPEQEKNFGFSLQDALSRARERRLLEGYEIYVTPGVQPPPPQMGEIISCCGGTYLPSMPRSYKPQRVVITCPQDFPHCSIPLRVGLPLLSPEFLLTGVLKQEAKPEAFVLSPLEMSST

effect of a mutation on the interaction	Variant
disrupting interaction	R42A
